This passage reports koff and Kd results from publication PMC12406269 (2025).

The target in assay [1] is T1, human ISG15 (C78S) (human, UniProt P05161 1-157, C78S). Briefly: BLI. (In general: Biolayer interferometry detects binding as a change in optical thickness at a sensor tip.)
In assay [2] the target is T1, human ISG15 (C78S). As to the kind of experiment: BLI. The source holds these as a separate data set.

T1 sequence (P05161 1-157 C78S): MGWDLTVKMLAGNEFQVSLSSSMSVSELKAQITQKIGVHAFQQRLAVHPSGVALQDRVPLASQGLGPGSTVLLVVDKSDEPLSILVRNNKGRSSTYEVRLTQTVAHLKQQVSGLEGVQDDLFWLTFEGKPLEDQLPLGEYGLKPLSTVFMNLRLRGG

B1: C-terminally biotin-tagged VHH_(ISG15-B) (VHH)
VHH: QVQLVETGGGLVEPGGSLRLSCTVSGINFSSQFMAWFRQGPGKQREWVAIDAGEENVGYLDLVEGRFTISRDTARNTLYLQMNSLKPEDTAVYYCNIFPVLPDSRWGQGTQVTVSS
modifications: biotin at the C-terminus (sortase reaction with GGG-Biotin replaces the C-terminal HA tag)
By koff is commonly meant the rate constant with which the complex falls apart. The term Kd denotes the constant that tells how readily two partners part at equilibrium. Higher therefore signals a looser complex. B1: the koff with human ISG15 (C78S) [1] amounted to 0.00388 s⁻¹. Further, in the assay with human ISG15 (C78S) [2], the Kd was found to be 2.88 nM.

B2: C-terminally biotin-tagged VHH_(ISG15-A) (VHH)
VHH: QLQLVETGGGLVQAGGSLRLSCAASGRTFAGLSVKWFRQPPGAEREWVAHITSTGSSTHYADSVKGRFTISRDYDRNMVYLQMSSLKPEDTAVYYCHASTLWPEKHQDYWGQGIQVTVSS
modifications: biotin at the C-terminus (sortase reaction with GGG-Biotin replaces the C-terminal HA tag)
In the assay with human ISG15 (C78S) [1], B2 showed a koff of 0.012 s⁻¹. This molecule returned a Kd in the assay with human ISG15 (C78S) [2] of 101 nM.
